Patent US20200339678A1 (RIGEL PHARMACEUTICALS, published 2020)
Numbering of substitutions follows the chain as printed. In names and notes the source's numbering stands.

T1: His-tagged recombinant Human TIGIT (human, UniProt Q495A1 22-141)
T1 construct: coated antigen of the direct ELISA; not shown: His tag
T1 sequence (looked up): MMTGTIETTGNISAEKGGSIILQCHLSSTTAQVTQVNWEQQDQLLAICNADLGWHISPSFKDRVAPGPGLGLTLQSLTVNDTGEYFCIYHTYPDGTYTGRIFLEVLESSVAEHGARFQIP

T2: His-tagged recombinant Mouse TIGIT (mouse, UniProt P86176 29-148, limits assumed)
T2 construct: coated antigen of the direct ELISA; not shown: His tag
T2 sequence (looked up): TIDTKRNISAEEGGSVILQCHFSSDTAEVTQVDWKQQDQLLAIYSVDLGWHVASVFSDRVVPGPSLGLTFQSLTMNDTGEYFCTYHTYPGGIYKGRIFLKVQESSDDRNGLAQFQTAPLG

T3: His-tagged recombinant Mouse TIGIT (mouse, UniProt P86176 29-148, limits assumed)
T3 construct: Coated on the plate at 0.5 µg/mL in the direct ELISA; not shown: His tag
T3 sequence (looked up): T2 sequence (looked up)

T4: biotinylated human TIGIT (human, UniProt Q495A1 22-141, biotinylated (EZ-Link NHS-PEG4-biotin kit))
T4 construct: extracellular domain; also called TIGIT-ECD
T4 sequence (looked up): T1 sequence (looked up)

T5: mouse TIGIT-Fc (mouse, UniProt P86176 29-148)
T5 construct: extracellular domain; also called TIGIT-ECD; not shown: Fc
T5 sequence (looked up): T2 sequence (looked up)

T6: human TIGIT fused to a beta galactosidase fragment, expressed on YTS cells (human, UniProt Q495A1 22-244)
T6 sequence (looked up): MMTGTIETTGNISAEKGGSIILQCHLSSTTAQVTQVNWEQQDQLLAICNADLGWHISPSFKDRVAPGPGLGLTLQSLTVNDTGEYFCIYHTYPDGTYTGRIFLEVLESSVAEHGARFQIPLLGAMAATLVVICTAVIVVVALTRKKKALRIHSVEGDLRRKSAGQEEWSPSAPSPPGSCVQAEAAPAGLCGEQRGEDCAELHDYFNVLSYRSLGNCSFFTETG

T7: human TIGIT fused to a beta galactosidase portion, on YTS cells (YTS_hTIGIT/hGrb2) (human, UniProt Q495A1 22-244)
T7 sequence (looked up): T6 sequence (looked up)

T8: human TIGIT expressed in YTS cells, fused to a portion of beta galactosidase (human, UniProt Q495A1 22-244)
T8 sequence (looked up): T6 sequence (looked up)

T9: mouse TIGIT-Fc (mouse, UniProt P86176 29-148)
T9 construct: extracellular domain; also called mouse TIGIT-ECD; not shown: Fc
T9 sequence (looked up): T2 sequence (looked up)

T10: mouse TIGIT-Fc (mouse, UniProt P86176 29-148)
T10 construct: extracellular domain; also called mouse TIGIT extra cellular domain
T10 sequence (looked up): T2 sequence (looked up)

T11: biotinylated human TIGIT (human, UniProt Q495A1 22-141, biotinylated (EZ-Link NHS-PEG4-biotin kit))
T11 construct: extracellular domain; also called human TIGIT extra cellular domain; TIGIT-ECD
T11 sequence (looked up): T1 sequence (looked up)

B1: Ab15i1 (antibody, V domains shown)
VH: EVQLLESGGGLVQPGGSLRLSCAASGFTFSSYSMHWVRQAPGKGLEWVASIWSNSGNTGYADSVKGRFTISRDNSKNTLYLQMNSLRAEDTAVYYCARVPYDYWMDYWGQGTLVTVSS
VL: not shown
notes: hIgG1 of Ab15
B2: Ab15i2 (antibody, V domains shown)
VH: B1 VH
VL: not shown
notes: mIgG2a of Ab15
B3: Ab22i1 (antibody, V domains shown)
VH: B1 VH with W52K, N54S, S55G, N57S, T58K, G59Y
VL: not shown
notes: hIgG1 of Ab22
B4: Ab22i2 (antibody, V domains shown)
VH: B1 VH with W52K, N54S, S55G, N57S, T58K, G59Y
VL: not shown
notes: mIgG2a of Ab22
B5: Ab28i1 (antibody, V domains shown)
VH: B1 VH with S50N, W52N, S55G, Y103V
VL: not shown
notes: hIgG1 of Ab28
B6: Ab28i2 (antibody, V domains shown)
VH: B1 VH with S50N, W52N, S55G, Y103V
VL: not shown
notes: mIgG2a of Ab28
B7: Ab32i1 (antibody, V domains shown)
VH: B1 VH with S50N, W52N, S55G, Y103V
VL: not shown
notes: hIgG1 of Ab32
B8: Ab40i3 (antibody, V domains shown)
VH: B1 VH with H35N, S50G, W52K, S53Y, N54S, T58K, G59Y, V99G, Y103V
VL: not shown
notes: mIgG2a of Ab40, G33S
B9: Ab40i6 (antibody, V domains shown)
VH: B1 VH with S33G, H35N, S50G, W52K, N54S, T58K, G59Y, V99G, Y103V
VL: not shown
notes: hIgG1 of Ab40, Y52aS
B10: Ab40i7 (antibody, V domains shown)
VH: B1 VH with S33G, H35N, S50G, W52K, N54S, T58K, G59Y, V99G, Y103V
VL: not shown
notes: mIgG2a of Ab40, Y52aS
B11: Ab48i1 (antibody, V domains shown)
VH: B1 VH with H35N, S50N, W52K, N54S, S55G, G56S, N57S, G59S, V99G, Y103V
VL: not shown
notes: hIgG1 of Ab48
B12: Ab48i2 (antibody, V domains shown)
VH: B1 VH with H35N, S50N, W52K, N54S, S55G, G56S, N57S, G59S, V99G, Y103V
VL: not shown
notes: mIgG2a of Ab48
B13: Ab53 (Fab, V domains shown)
VH: B1 VH with W52K, N54S, G56S, T58K, G59Y, V99G, Y103V, M105L
VL: not shown
B14: Ab53i1 (antibody, V domains shown)
VH: B1 VH with W52K, N54S, G56S, T58K, G59Y, V99G, Y103V, M105L
VL: not shown
notes: mIgG2a of Ab53
B15: Ab53i2 (antibody, V domains shown)
VH: B1 VH with W52K, N54S, G56S, T58K, G59Y, V99G, Y103V, M105L
VL: not shown
notes: hIgG1 of Ab53
B16: Ab53i3 (antibody, V domains shown)
VH: B1 VH with S33G, W52K, N54S, G56S, T58K, G59Y, V99G, Y103V, M105L
VL: not shown
notes: hIgG1 of Ab53, S33G
B17: Ab53i4 (antibody, V domains shown)
VH: B1 VH with S33G, W52K, N54S, G56S, T58K, G59Y, V99G, Y103V, M105L
VL: not shown
notes: mIgG2a of Ab53, S33G
B18: Ab53i6 (antibody, V domains shown)
VH: B1 VH with S33G, W52K, S53Y, N54S, G56S, T58K, G59Y, V99G, Y103V, M105L
VL: not shown
B19: Ab40i5 (antibody, V domains shown)
VH: B1 VH with H35N, S50G, W52K, N54S, T58K, G59Y, V99G, Y103V
VL: not shown
B20: Ab117 (Fab, V domains shown)
VH: EVQLLESGGGLVQPGGSLRLSCAASGFTFSSYAMSWVRQAPGKGLEWVAAIKSSASTIYYADSVKGRFTISRDNSKNTLYLQMNSLRAEDTAVYYCAREPYSVWMDYWGQGTLVTVSS
VL: not shown
notes: ARE
B21: Ab40 (Fab, V domains shown)
VH: B20 VH with A33G, S35N, A50G, S53Y, A55S, S56G, T57N, I58K, E99G, S102D
VL: not shown
notes: clone from a phage library of monovalent human Fabs; also called clone Ab40
B22: Ab53 (Fab, V domains shown)
VH: B1 VH with W52K, N54S, G56S, T58K, G59Y, V99G, Y103V, M105L
VL: not shown
notes: clone from a phage library of monovalent human Fabs; also called clone Ab53
B23: Ab48 (Fab, V domains shown)
VH: B20 VH with A33S, S35N, A50N, A55G, T57S, I58T, Y59S, E99G, S102D
VL: not shown
notes: clone from a phage library of monovalent human Fabs; also called clone Ab48
B24: Ab1 (Fab, V domains shown)
VH: B1 VH with S33A, A49S, S50G, W52S, S55G, N57S, G59S, D102S, Y103V, M105I
VL: not shown
notes: clone from a phage library of monovalent human Fabs; also called clone Ab1
B25: Ab117 (Fab, V domains shown)
VH: B20 VH
VL: not shown
notes: clone from a phage library of monovalent human Fabs; also called clone Ab117

molecular target: T1, His-tagged recombinant Human TIGIT; assay: ELISA
Experimental: (§1) Binding affinities for antigen binding to anti-TIGIT monoclonal antibodies were determined by ELISA. […] Antibodies to be tested were diluted to 1 μM in PBS buffer containing 1% BSA and diluted 3-fold in a 10-point curve. […] Detection of the secondary antibody was determined using streptavidin-HRP and TMB reagent. All assays were performed at room temperature. Curve-fitting software was used to determine the EC₅₀ for each antibody.

Binder | EC50 [nM]
B1 | 4.8
B2 | 21.6
B3 | 0.7
B4 | 1.8
B5 | 0.4
B6 | 0.6
B7 | 0.4
B8 | 0.2
B9 | 0.3
B10 | 0.2
B11 | 0.2
B12 | 0.2
B13 | 4.3
B14 | 0.3
B15 | 0.1
B16 | 0.8
B17 | 1.1
B18 | 0.2
B19 | 0.2

molecular target: T2, His-tagged recombinant Mouse TIGIT; assay: ELISA
Experimental: as §1

Binder | EC50 [nM]
B1 | 2.3
B2 | 2.7
B3 | 0.3
B4 | 0.2
B5 | 2.7
B6 | 2.5
B7 | 2.5
B8 | 41
B9 | 37
B10 | 7.6
B11 | 0.2
B12 | 0.2
B13 | 7.6
B14 | 0.4
B15 | 0.2
B16 | 6.3
B17 | 4.6
B18 | 32.3
B19 | 2.4

molecular target: T3, His-tagged recombinant Mouse TIGIT; assay: ELISA
Experimental: as §1

Binder | EC50 [nM]
B20 | 10.7

molecular target: T4, biotinylated human TIGIT; assay: comp. ELISA vs PVR
Experimental: (§2) Antibodies were serially diluted in a 10-point curve starting at 1 μM in 3-fold steps. […] Units are in microM.

Binder | IC50 [nM]
B1 | 2.2
B2 | 10.9
B3 | 1.5
B4 | 38.3
B5 | 1.2
B6 | 2
B7 | 1.1
B8 | 3.7
B9 | 2.7
B10 | 3
B11 | 1.9
B12 | 1.6
B13 | 9
B14 | 1.6
B15 | 0.6
B16 | 8.3
B17 | 6.7
B18 | 1.7
B19 | 4.2

molecular target: T5, mouse TIGIT-Fc; assay: comp. ELISA vs PVR
Experimental: as §2

Binder | IC50 [nM]
B1 | 1.2
B2 | 1.6
B3 | 0.5
B4 | 2.6
B5 | 1.3
B6 | 1.5
B7 | 1.4
B8 | > 1000
B9 | 78.8
B10 | 121
B11 | 1.5
B12 | 1.9
B13 | 35.3
B14 | 4.2
B15 | 1.5
B16 | 18.5
B17 | 48.2
B18 | > 1000
B19 | 16.9

molecular target: T6, human TIGIT fused to a beta …; assay: cell-based or functional assay

Binder | IC50 of inhibition of Grb2 recruitment (YTS_hTIGIT/hGrb2, 221_hPVR/ICAM, 11 pt) [nM]
B21 | 2.3
B22 | 30.3

molecular target: T6, human TIGIT fused to a beta …; assay: cell-based or functional assay; remark: another data set of the same source

Binder | EC50 of induced dimerization (YTS_hTIGIT/hTIGIT, 11 pt) [nM]
B23 | 477
B21 | 9.5
B22 | 2.7

molecular target: T7, human TIGIT fused to a beta …; assay: cell-based or functional assay

Binder | YTS_hTIGI/hGrbs_EFC_Agonism, 221_WT [µM] | YTS_hTIGI/hGrbs_EFC_Antagonism, 221_hPVR/ICAM [µM]
B1 | > 1 | > 1
B2 | > 1 | 0.275
B3 |  | 0.16
B4 | > 1 | > 1
B5 |  | 0.0758
B6 |  | 0.26
B7 |  | 0.069
B8 | 0.08 | 0.0098
B9 | 0.0014 | 0.276
B10 | 0.0156 | 0.0163
B11 |  | 0.0286
B12 |  | 0.0068
B13 |  | 0.0303
B14 |  | 0.0259
B15 |  | 0.0675
B16 | 0.0042 | > 1
B17 | 0.0185 | 0.45
B18 | 0.0077 | 0.0363
B19 | 0.0358 | 0.238

molecular target: T8, human TIGIT expressed in YTS cells, …; assay: cell-based or functional assay

Binder | YTS_hTIGI/hGrbs_EFC_Agonism (EC50) [nM] | YTS_hTIGI/hGrbs_EFC_Antagonism (IC50) [nM] | YTS_hTIGIT/hTIGIT_EFC (EC50) [nM]
B20 | > 1000 | > 1000 | > 1000

molecular target: T9, mouse TIGIT-Fc; assay: competitive ELISA vs coated PVR
Experimental: as §2

Binder | IC50 [nM]
B20 | 23.4

molecular target: T10, mouse TIGIT-Fc; assay: competitive ELISA, mTIGIT-Fc to coated PVR
Experimental: as §2

Binder | IC50 [nM]
B23 | 64.7
B24 | 632
B21 | > 1000
B22 | 35.3
B25 | 23.4

molecular target: T11, biotinylated human TIGIT; assay: competitive ELISA, biotin-hTIGIT to coated PVR
Experimental: as §2

Binder | IC50 [nM]
B23 | 111
B24 | 89.9
B21 | 3.8
B22 | 9
